# Tests used:
# [1] = target: mCherry-Nup153-IDR-NLS-LacI; assay: LacO array recruitment
# [2] = target: mCherry-Med1-IDR-NLS-LacI; assay: LacO array recruitment
# Sequence of mCherry-Med1-IDR-NLS-LacI (Q15648 whole entry): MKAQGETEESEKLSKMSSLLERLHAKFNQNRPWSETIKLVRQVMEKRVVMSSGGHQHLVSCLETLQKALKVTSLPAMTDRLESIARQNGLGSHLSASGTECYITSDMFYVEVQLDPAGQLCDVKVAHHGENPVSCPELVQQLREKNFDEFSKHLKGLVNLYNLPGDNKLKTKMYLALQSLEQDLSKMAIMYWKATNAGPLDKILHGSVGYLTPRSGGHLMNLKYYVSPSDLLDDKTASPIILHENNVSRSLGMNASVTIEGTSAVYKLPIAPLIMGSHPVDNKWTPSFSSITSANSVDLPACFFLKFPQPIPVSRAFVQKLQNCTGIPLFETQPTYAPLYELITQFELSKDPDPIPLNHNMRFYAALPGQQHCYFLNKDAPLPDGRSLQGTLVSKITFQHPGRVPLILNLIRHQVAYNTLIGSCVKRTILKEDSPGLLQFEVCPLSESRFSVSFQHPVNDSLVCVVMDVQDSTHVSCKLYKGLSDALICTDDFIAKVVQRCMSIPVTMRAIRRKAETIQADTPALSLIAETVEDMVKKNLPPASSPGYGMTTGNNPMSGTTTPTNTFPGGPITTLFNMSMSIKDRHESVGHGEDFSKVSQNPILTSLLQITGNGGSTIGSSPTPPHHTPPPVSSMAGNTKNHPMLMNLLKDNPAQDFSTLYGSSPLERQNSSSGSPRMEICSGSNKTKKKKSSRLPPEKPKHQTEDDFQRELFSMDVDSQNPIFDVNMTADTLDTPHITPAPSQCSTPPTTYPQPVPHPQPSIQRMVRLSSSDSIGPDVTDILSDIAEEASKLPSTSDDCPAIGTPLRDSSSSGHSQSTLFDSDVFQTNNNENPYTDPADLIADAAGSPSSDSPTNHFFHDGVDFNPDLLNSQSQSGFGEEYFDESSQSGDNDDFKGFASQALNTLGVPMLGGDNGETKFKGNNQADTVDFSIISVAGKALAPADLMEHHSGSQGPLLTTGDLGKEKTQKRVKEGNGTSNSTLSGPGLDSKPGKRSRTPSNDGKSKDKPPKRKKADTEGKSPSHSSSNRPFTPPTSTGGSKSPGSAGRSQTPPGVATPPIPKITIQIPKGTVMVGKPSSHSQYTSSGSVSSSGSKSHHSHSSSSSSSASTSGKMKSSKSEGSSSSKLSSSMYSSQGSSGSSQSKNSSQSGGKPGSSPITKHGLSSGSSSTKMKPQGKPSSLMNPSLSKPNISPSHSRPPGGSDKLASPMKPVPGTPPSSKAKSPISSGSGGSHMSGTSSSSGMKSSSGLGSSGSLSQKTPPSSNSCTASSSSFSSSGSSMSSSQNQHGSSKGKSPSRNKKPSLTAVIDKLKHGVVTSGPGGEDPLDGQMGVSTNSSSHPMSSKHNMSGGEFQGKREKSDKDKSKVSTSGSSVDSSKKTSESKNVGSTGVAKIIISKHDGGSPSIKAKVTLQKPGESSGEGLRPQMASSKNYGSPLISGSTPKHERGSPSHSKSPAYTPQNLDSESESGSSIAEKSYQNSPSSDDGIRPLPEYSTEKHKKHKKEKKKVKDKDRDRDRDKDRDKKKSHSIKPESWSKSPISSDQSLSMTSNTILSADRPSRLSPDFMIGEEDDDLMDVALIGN
# Sequence of mCherry-Nup153-IDR-NLS-LacI (P49790 2-1475): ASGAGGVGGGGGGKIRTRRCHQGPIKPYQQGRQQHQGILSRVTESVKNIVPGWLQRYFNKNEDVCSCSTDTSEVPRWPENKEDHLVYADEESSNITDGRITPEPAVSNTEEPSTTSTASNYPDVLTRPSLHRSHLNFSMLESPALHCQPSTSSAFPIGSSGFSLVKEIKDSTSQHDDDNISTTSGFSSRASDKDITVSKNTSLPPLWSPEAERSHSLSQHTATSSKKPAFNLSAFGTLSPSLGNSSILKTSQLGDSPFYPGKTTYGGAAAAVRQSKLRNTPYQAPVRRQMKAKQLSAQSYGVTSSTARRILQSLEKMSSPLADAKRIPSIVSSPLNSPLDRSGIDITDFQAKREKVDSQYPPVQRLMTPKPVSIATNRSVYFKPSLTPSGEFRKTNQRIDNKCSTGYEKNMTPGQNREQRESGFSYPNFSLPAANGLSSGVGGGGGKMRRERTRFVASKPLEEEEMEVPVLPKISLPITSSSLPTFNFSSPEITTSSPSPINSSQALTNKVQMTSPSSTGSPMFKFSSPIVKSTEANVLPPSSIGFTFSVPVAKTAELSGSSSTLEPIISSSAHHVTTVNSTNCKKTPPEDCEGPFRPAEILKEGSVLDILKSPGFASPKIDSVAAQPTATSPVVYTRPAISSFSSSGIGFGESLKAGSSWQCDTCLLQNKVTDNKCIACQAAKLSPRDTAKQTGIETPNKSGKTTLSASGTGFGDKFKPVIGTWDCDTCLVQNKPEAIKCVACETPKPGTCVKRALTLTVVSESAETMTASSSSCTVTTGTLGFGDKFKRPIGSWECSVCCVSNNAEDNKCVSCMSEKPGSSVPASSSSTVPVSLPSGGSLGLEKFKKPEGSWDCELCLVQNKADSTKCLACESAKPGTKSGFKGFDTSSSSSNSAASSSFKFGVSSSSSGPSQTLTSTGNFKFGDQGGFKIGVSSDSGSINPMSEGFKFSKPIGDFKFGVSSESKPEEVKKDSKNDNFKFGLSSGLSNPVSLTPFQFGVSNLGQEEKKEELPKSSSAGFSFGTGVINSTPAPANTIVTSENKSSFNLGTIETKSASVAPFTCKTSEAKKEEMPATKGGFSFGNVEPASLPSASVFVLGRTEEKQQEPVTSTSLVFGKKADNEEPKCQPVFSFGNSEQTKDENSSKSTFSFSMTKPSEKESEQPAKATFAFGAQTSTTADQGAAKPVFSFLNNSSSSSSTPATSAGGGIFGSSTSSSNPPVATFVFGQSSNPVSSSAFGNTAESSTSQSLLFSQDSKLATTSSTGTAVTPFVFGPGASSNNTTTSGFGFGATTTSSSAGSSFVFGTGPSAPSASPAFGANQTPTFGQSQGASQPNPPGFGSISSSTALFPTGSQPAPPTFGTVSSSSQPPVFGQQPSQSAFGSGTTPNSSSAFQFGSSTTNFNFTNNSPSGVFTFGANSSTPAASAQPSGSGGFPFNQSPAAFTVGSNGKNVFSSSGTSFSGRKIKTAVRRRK
# Sequence of EGFP-Med1-NLS (Med1 IDR fused to GFP) (domain or fragment) (Q15648 whole entry, the tested form may be a part): as the sequence (Q15648 whole entry) above
substance,measurement,setting,value
EGFP-Med1-NLS (Med1 IDR fused to GFP) (domain or fragment),percent of cells with colocalized GFP and mCherry signal,[1],13 % of cells
EGFP-PolII CTD52-NLS (domain or fragment),percent of cells with colocalized GFP and mCherry signal,[1],67 % of cells
same,percent of cells with colocalized GFP and mCherry signal,[2],53 % of cells

# — doi:10.1101/2021.05.10.443506
